Tests used:
human CCR2 = target: T1, human CCR2 (human, UniProt P41597 1-374); assay: flow cytometry, HEK293 with N-term FLAG-tagged human CCR2
T1 construct: whole, on cells; transiently expressed on HEK293 cells
From the text: (§1) FIGS. 4A-4F depicts the binding data of hu.Ab3.H1L1 (FIG. 4A), hu.Ab4.H1L1 (FIG. 4B), and hu.Ab5.H1L1 (FIG. 4C), as well as the commercial anti-CCR8 mAbs murine anti-human CCR8 mAb 433H (BD Biosciences) (FIG. 4D), and murine anti-human CCR8 mAb L263G8 (Biolegend) (FIG. 4E), and the humanized anti-human Yoshida anti-CCR8 mAb (FIG. 4F), to HEK293 cells that were transiently transfected with N-term FLAG-tagged plasmids encoding for human GPCRs (CCR2, CCR3, CCR4, CCR5, CCR8, CXCR4, ACKR2, and ACKR4), hCCR8 constructs, or with a mock construct using transIT X2 (reagent:DNA=3:1).
To confirm the selectivity to CCR8, the binding of hu.Ab3.H1L1, hu.Ab4.H1L1, and hu.Ab5.H1L1, as well as the Yoshida humanized anti-human CCR8, murine anti-human CCR8 mAb L263G8 (Biolegend, Commercial Ab) and murine anti-human CCR8 mAb 433H (BD Biosciences, Commercial Ab), were characterized by flow cytometry on HEK293 cells that were transiently transfected with plasmids encoding for FLAG-tagged other related human GPCRs (CCR2-5, CXCR4, ACKR2, and ACKR4). Cell surface expression of each GPCR was confirmed by staining with an anti-FLAG antibody control. In particular, HEK293 cells were transfected with N-term FLAG-tagged human CCR2, CCR3, CCR4, CCR5, CXCR4, ACKR2, ACKR4, hCCR8 constructs, or with a Mock construct using transIT X2 (reagent:DNA=3:1) for 24 hours, and surface stained with various anti-hCCR8 monoclonal antibodies at 5 ug/ml, or rabbit anti-Flag pAb (Sigma) followed by AF647-anti-hIgG or AF647-anti-RbIgG respectively. Antibodies hu.Ab4.H1L1, and hu.Ab5.H1L1, only stained the hCCR8-containing cells, confirming their specificity to hCCR8. […] Thus, the CCR8 selective hu.Ab4.H1L1 and hu.Ab5.H1L1 antibodies with the best ADCC activities were carried forward.

human ACKR4 = target: T2, human ACKR4 (human, UniProt Q9NPB9 1-350); assay: flow cytometry, HEK293 transiently transfected with N-term FLAG-tagged human ACKR4, antibody at 5 ug/ml
T2 construct: whole, on cells; transiently expressed on HEK293 cells
T2 sequence (looked up): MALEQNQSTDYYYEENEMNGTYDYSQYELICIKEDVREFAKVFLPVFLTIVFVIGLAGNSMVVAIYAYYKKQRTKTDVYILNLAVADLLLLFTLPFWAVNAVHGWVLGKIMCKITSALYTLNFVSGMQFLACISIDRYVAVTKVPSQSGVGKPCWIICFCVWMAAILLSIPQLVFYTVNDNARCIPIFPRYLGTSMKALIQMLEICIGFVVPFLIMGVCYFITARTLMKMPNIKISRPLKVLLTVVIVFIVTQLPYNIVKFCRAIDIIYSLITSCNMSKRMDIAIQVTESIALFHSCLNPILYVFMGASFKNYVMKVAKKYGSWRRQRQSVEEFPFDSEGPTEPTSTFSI
From the text: as §1
(§2) To confirm the selectivity to CCR8, the binding of hu.Ab3.H1L1, hu.Ab4.H1L1, and hu.Ab5.H1L1, as well as the Yoshida humanized anti-human CCR8, murine anti-human CCR8 mAb L263G8 (Biolegend, Commercial Ab) and murine anti-human CCR8 mAb 433H (BD Biosciences, Commercial Ab), were characterized by flow cytometry on HEK293 cells that were transiently transfected with plasmids encoding for FLAG-tagged other related human GPCRs (CCR2-5, CXCR4, ACKR2, and ACKR4). Cell surface expression of each GPCR was confirmed by staining with an anti-FLAG antibody control. […]

cyno CCR8 = target: T3, cyno CCR8 (cynomolgus monkey, UniProt O97665 1-356 (rhesus entry)); assay: flow cytometry on human and cyno CCR8 CHO cells
T3 construct: also called cynomolgus monkey CCR8

human CCR5 = target: T4, human CCR5 (human, UniProt P51681 1-352); assay: flow cytometry, HEK293 transiently transfected with N-term FLAG-tagged human CCR5, antibody at 5 ug/ml
T4 construct: whole, on cells; transiently expressed on HEK293 cells
From the text: as §1, §2

human CCR8 [1] = target: T5, human CCR8 (human, UniProt P51685 1-355); assay: cell-based or functional assay
human CCR3 = target: T6, human CCR3 (human, UniProt P51677 1-355); assay: flow cytometry, HEK293 transiently transfected with N-term FLAG-tagged human CCR3, antibody at 5 ug/ml
T6 construct: whole, on cells; transiently expressed on HEK293 cells
T6 sequence (looked up): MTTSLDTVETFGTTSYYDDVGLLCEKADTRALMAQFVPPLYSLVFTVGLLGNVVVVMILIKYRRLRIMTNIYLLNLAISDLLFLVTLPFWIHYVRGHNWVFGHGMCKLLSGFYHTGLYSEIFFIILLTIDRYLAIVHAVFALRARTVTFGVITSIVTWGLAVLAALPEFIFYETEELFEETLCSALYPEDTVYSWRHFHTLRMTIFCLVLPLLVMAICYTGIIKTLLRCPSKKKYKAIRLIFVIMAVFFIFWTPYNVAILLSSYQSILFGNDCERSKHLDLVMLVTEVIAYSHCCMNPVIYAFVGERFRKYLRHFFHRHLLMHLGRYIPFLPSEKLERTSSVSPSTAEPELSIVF
From the text: as §1, §2

human CXCR4 = target: T7, human CXCR4 (human, UniProt P61073 1-352); assay: flow cytometry, HEK293 transiently transfected with N-term FLAG-tagged human CXCR4, antibody at 5 ug/ml
T7 construct: whole, on cells; transiently expressed on HEK293 cells
From the text: as §1, §2

human CCR8 [2] = target: T5, human CCR8; assay: flow cytometry, 2 ug/mL mAb, Treg cells of human colorectal dissociated tumor cells
Description: The mAbs were evaluated for binding to regulatory T cells (Treg cells or Tregs) by Fluorescence-Activated Cell Sorting (FACS) flow cytometry. Human colorectal dissociated tumor cells (DTC) (Discovery Life Sciences) were thawed according to vendor's protocol. Cells were surface stained with eFluor 780-conjugated Fixable Viability Dye (ThermoFisher Scientific) and 2 ug/mL mAb specific for CCR8, OX40 (positive control), Herceptin (negative control), or anti-hIgG (negative control) for 20 min at 4° C. followed by secondary detection with AF647-conjugated AffiniPure F(ab′)2 Fragment Goat anti-Human IgG, Fcg fragment-specific (Jackson ImmunoResearch) for 10 min at 4° C. Cells were then intracellularly stained using the eBioscience Foxp3/Transcription Factor Staining Buffer Set (ThermoFisher Scientific) according to the manufacturer's protocol. […] Shown in FIG. 1 are mean fluorescent intensity (MFI) values for CD8 T cells (defined as CD45+CD14−CD3+CD8+CD4−) (circles, ◯), conventional CD4 T cells (defined as CD45+CD14−CD3+CD8−CD4+FOXP3−) (squares, □), and Treg cells (defined as CD45+CD14−CD3+CD8−CD4+FOXP3+) (triangles, ▴). Three of the five CCR8 mAb clones specifically stained Treg cells and not conventional CD4 or CD8 T cells and were ranked according to CCR8 MFI, greater than 500 MFI: hu.Ab4.H1L1>hu.Ab5.H1L1>hu.Ab3.H1L1. Upon confirmation that these three CCR8 mAb clones, namely, hu.Ab3.H1L1, hu.Ab4.H1L1, and hu.Ab5.H1L1, also retained human-cyno cross-reactivity (differences less than 5-fold on human and cyno CCR8 CHO cells), these antibodies carried forward for further exploration.

T3 sequence (O97665 other isoform, or with tags, fused parts or gaps): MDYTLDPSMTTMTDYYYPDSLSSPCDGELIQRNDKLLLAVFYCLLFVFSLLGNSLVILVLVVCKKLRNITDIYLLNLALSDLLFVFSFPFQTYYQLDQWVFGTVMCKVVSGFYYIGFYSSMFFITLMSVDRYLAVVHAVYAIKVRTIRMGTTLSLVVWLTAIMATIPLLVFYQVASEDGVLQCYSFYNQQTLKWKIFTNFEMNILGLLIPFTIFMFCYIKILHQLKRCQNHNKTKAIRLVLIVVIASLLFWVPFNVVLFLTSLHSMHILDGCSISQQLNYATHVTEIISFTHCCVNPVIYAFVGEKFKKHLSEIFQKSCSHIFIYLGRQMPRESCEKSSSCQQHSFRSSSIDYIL
T4 sequence (P51681 whole entry): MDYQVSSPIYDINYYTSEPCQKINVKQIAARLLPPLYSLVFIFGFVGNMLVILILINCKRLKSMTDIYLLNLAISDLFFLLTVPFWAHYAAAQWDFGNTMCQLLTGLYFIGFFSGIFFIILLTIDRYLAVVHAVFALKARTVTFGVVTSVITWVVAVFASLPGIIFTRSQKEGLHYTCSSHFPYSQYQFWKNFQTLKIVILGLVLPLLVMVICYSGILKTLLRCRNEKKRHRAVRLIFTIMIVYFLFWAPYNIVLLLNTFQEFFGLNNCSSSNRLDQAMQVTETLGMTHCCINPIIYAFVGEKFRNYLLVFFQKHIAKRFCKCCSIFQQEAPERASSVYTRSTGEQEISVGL
T7 sequence (P61073 whole entry): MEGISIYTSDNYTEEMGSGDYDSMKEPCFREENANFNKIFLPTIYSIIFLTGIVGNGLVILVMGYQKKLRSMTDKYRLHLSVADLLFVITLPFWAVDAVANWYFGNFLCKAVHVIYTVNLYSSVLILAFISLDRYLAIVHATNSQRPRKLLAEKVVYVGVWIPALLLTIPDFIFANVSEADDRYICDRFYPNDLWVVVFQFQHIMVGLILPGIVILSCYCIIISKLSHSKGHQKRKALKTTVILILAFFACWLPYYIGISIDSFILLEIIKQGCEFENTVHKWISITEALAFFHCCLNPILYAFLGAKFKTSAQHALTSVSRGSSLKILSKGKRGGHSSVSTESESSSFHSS
T1 sequence (P41597 whole entry): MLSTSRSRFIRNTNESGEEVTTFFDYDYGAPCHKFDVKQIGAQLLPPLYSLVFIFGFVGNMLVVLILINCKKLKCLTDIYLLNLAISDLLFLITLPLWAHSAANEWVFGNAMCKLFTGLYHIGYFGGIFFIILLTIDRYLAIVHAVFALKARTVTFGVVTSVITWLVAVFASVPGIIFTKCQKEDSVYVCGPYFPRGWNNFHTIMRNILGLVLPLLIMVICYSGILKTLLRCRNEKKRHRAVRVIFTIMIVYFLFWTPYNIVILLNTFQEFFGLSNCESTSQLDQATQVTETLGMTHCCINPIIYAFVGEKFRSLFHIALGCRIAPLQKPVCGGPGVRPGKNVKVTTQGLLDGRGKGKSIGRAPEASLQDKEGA

binding result (human CCR2): no binding (tested: 5 ug/ml)
binding result (human ACKR4): binds
binding result (cyno CCR8): binds
binding result (human CCR5): binds
ADCC EC50, NK-92_F158 effector cells, calcein release (human CCR8 [1]): 20 pM
binding result (human CCR3): binds
binding result (human CXCR4): binds
MFI (human CCR8 [2]): > 500 MFI
B1: hu.Ab3.H1L1 (antibody, human IgG1, kappa, V domains shown)
VH: EQQLVESGGGLVQPGGSLRLSCAVSGFSLSSYAMSWVRQAPGKGLEWIGVISASGRIIYATWAKGRFTISKDSAKTSVYLQMNSLRDEDTAVYFCARGVPSYSLVMSDWGPGTTVTVSS
VL: EPVMTQSPATLSVSPGERATLSCQASQSISNALAWYQQKPGQPPRLLIYEVSKVASGVPARFSGSGSGTEFTLTISSLQSEDFAVYYCQSAYYGNSYVWGAFGQGTKVEIKR
notes: humanized, human IgG1
